Reference: patent EP2974737A1 (Ablynx N.V., dated 2016)

B1: SEQ ID NO: 38 (VHH)
chain: EVQLVESGGGLVQPGGSLRLSCAASGFTFSSYAMSWVRQAPGKGLEWVSGIKSSGDSTRYAGSVKGRFTISRDNAKNTLYLQMNSLRPEDTAVYYCAKSRVSRTGLYTYDNRGQGTLVTVSSGGGGSGGGGSGGGGSGGGGSEVQLVESGGGLVQPGGSLRLSCAASGRTFNNYAMGWFRQAPGKEREFVAAITRSGVRSGVSAIYGDSVKDRFTISRDNAKNTLYLQMNSLRPEDTAVYYCAASAIGSGALRRFEYDYSGQGTLVTVSSA
B2: SEQ ID NO: 42 (VHH)
chain: EVQLVESGGGLVQPGGSLRLSCAASGRTFSYNPMGWFRQAPGKGRELVAAISRTGGSTYYPDSVEGRFTISRDNAKRMVYLQMNSLRAEDTAVYYCAAAGVRAEDGRVRTLPSEYTFWGQGTQVTVSSAAAEVQLVESGGGLVQPGGSLRLSCAASGRTFSYNPMGWFRQAPGKGRELVAAISRTGGSTYYPDSVEGRFTISRDNAKRMVYLQMNSLRAEDTAVYYCAAAGVRAEDGRVRTLPSEYTFWGQGTQVTVSSA
B3: SEQ ID NO: 65 (VHH)
VHH: EVQLVESGGGLVQAGGSLRLSCAASRSIGRLDRMGWYRHRPGEPRELVATITGGSSINYGDSVKGRFTISIDNSKNTVYLQMNSLRPEDTAVYYCNFNKYVTSRDTWGQGTLVTVSS
B4: SEQ ID NO: 83 (VHH)
VHH: EVQLVESGGGLVQPGGSLRLSCAASRSIGRLDRMGWYRHRPGEPRELVATITGGSSINYGDSVKGRFTISIDNSKNTVYLQMNSLRPEDAAVYYCNFNKYVTSRDTWGQGTLVTVSS
B5: SEQ ID NO: 71 (VHH)
VHH: EVQLVESGGGLVQPGGSLRLSCAASRSIGRLDRMGWYRHRPGEPRELVATITGGSSINYGDSVKGRFTISIDNSKNTVYLQMNSLRPEDTAVYYCNFNKYVTSRDTWGQGTLVTVSG
B6: SEQ ID NO: 68 (VHH)
VHH: EVQLVESGGGLVQAGGSLRLSCAASRSIGRLDRMGWYRHRPGEPRELVATITGGSSINYGDSVKGRFTISIDNSKNTVYLQMNSLRPEDTAVYYCNFNKYVTSRDTWGQGTQVTVSS
B7: SEQ ID NO: 82 (VHH)
VHH: EVQLVESGGGLVQPGGSLRLSCAASRSIGRLDRMGWYRHRPGEPRELVATITGGSSINYGDSVKGRFTISIDNSKNTVYLQMNSLRAEDTAVYYCNFNKYVTSRDTWGQGTLVTVSS
B8: SEQ ID NO: 66 (VHH)
VHH: EVQLVESGGGSVQPGGSLRLSCAASRSIGRLDRMGWYRHRPGEPRELVATITGGSSINYGDSVKGRFTISIDNSKNTVYLQMNSLRPEDTAVYYCNFNKYVTSRDTWGQGTLVTVSS
B9: SEQ ID NO: 74 (VHH)
VHH: EVQLVESGGGLVQPGGSLRLSCAASRSIGRLDRMGWYRHRPGEPRELVATITGGSSINYGDSVKGRFTISIDNSKNTVYLQMNSLRPEDTAVYYCNFNKYVTSRDTWGQGTLVTVSS
B10: SEQ ID NO: 84 (VHH)
VHH: EVQLVESGGGLVQPGGSLRLSCAASRSIGRLDRMGWYRHRPGEPRELVATITGGSSINYGDSVKGRFTISIDNSKNTVYLQMNSLRPEDTAVYYCNFNKYVTSRDTWGQGTLVTVGS
B11: SEQ ID NO: 70 (VHH)
VHH: EVQLVESGGGLVQPGGSLRLSCAASRSIGRLDRMGWYRHRPGEPRELVATITGGSSINYGDSVKGRFTISIDNSKNTVYLQMNSLRPEDTAVYYCNFNKYVTSRDTWGQGTLVQVSS
B12: SEQ ID NO: 69 (VHH)
VHH: EVQLVESGGGLVQPGGSLRLSCAASRSIGRLDRMGWYRHRPGEPRELVATITGGSSINYGDSVKGRFTISIDNSKNTVYLQMNSLRPEDTAVYYCNFNKYVTSRDTWGQGTQVTVSS
B13: SEQ ID NO: 73 (VHH)
VHH: EVQLVESGGGLVQPGGSLRLSCAASRSIGRLDRMGWYRHRPGEPRELVATITGGSSINYGDSVKGRFTISIDNSKNTVYLQMNSLRPEDTAVYYCNFNKYVTSRDTWGQGTLVTVGG
B14: SEQ ID NO: 72 (VHH)
VHH: EVQLVESGGGLVQPGGSLRLSCAASRSIGRLDRMGWYRHRPGEPRELVATITGGSSINYGDSVKGRFTISIDNSKNTVYLQMNSLRPEDTAVYYCNFNKYVTSRDTWGQGTLVTVGG
B15: SEQ ID NO: 81 (VHH)
VHH: EVQLVESGGGVVQPGGSLRLSCAASRSIGRLDRMGWYRHRPGEPRELVATITGGSSINYGDSVKGRFTISIDNSKNTVYLQMNSLRPEDTAVYYCNFNKYVTSRDTWGQGTLVTVSS
B16: SEQ ID NO: 76 (VHH)
VHH: EVQLVESGGGLVQPGGSLRLSCAASRSIGRLDRMGWYRHRPGEPRELVATITGGSSINYGDSVKGRFTISIDNSKNTVYLQMNSLRPEDTAVYYCNFNKYVTSRDTWGQGTLVTVSS
B17: SEQ ID NO: 79 (VHH)
VHH: EVQLVESGGGLVQPGGSLRLSCAASRSIGRLDRMGWYRHRPGEPRELVATITGGSSINYGDSVKGRFTISIDNSKNTVYLQMNSLRPEDTAVYYCNFNKYVTSRDTWGQGTLVTVSS
B18: SEQ ID NO: 75 (VHH)
VHH: EVQLVESGGGLVQPGGSLRLSCAASRSIGRLDRMGWYRHRPGEPRELVATITGGSSINYGDSVKGRFTISIDNSKNTVYLQMNSLRPEDTAVYYCNFNKYVTSRDTWGQGTLVTVSS
B19: SEQ ID NO: 77 (VHH)
VHH: EVQLVESGGGLVQPGGSLRLSCAASRSIGRLDRMGWYRHRPGEPRELVATITGGSSINYGDSVKGRFTISIDNSKNTVYLQMNSLRPEDTAVYYCNFNKYVTSRDTWGQGTLVTVSS
B20: SEQ ID NO: 80 (VHH)
VHH: EVQLVESGGGLVQPGGSLRLSCAASRSIGRLDRMGWYRHRPGEPRELVATITGGSSINYGDSVKGRFTISIDNSKNTVYLQMNSLRPEDTAVYYCNFNKYVTSRDTWGQGTLVQVGG
B21: SEQ ID NO: 67 (VHH)
VHH: EVQLVESGGGLVQPGGSLRLSCAASRSIGRLDRMGWYRHRPGEPRELVATITGGSSINYGDSVKGRFTISIDNSKNTVYLQMNSLKPEDTAVYYCNFNKYVTSRDTWGQGTLVTVSS
B22: SEQ ID NO: 78 (VHH)
VHH: EVQLVESGGGLVRPGGSLRLSCAASRSIGRLDRMGWYRHRPGEPRELVATITGGSSINYGDSVKGRFTISIDNSKNTVYLQMNSLRPEDTAVYYCNFNKYVTSRDTWGQGTLVTVSS
B23: SEQ ID NO: 43 (VHH)
chain: DVQLVESGGGLVQPGGSLRLSCAASGFILDYYAIGWFRQAPGKEREGVLCIDASDDITYYADSVKGRFTISRDNSKNTVYLQMNSLRPEDTAVYYCATPIGLSSSCLLEYDYDYWGQGTLVTVSSGGGGSGGGSEVQLLESGGGLVQPGGSLRLSCAASGFTFRSFGMSWVRQAPGKGPEWVSSISGSGSDTLYADSVKGRFTISRDNSKNTLYLQMNSLRPEDTAVYYCTIGGSLSRSSQGTLVTVSSA
B24: SEQ ID NO: 47 (VHH)
VHH: EVQLVESGGGLVQPGGSLRLSCAASGSVFKINVMAWYRQAPGKGRELVAGIISGGSTSYADSVKGRFTISRDNAKNTLYLQMNSLRPEDTAVYYCAFITTESDYDLGRRYWGQGTLVTVSS

What was measured:
Assay in all cases: SPR, interference factor immobilized; % of Fig. 9 reference
[1] = biological target: T1, purified interference factor(s) from Donor A (human)
T1 construct: also called interference in serum from Donor A

[2] = biological target: T2, purified interference factor(s) from Donor B (human)
T2 construct: the text names the donors 8, 19 and 30; also called interference in serum from Donor B

[3] = biological target: T3, purified interference factor(s) from Donor C (human)
T3 construct: the text names the donors 8, 19 and 30; also called interference in serum from Donor C

Row | Binder | interference binding, % of Reference Sequence [1] | interference binding, % of Reference Sequence [2] | interference binding, % of Reference Sequence [3]
1 | B1 | 9% | 25% | 7%
2 | B2 | 1% | 4% | –
3 | B3 | 73% | 121% | 64%
4 | B4 | 56% | 73% | 61%
5 | B5 | 88% | 105% | 87%
6 | B6 | 38% | 115% | 49%
7 | B7 | 96% | 80% | 100%
8 | B8 | 81% | 29% | 84%
9 | B9 | 4% | 41% | 33%
10 | B10 | 84% | 50% | 83%
11 | B11 | 90% | 105% | 98%
12 | B12 | 80% | 120% | 84%
13 | B13 | 6% | 8% | 9%
14 | B14 | 70% | 47% | 56%
15 | B15 | 94% | 50% | 89%
16 | B16 | 2% | 17% | 20%
17 | B17 | 1% | 17% | 13%
18 | B18 | 1% | 11% | 16%
19 | B19 | 2% | 12% | 13%
20 | B20 | 65% | 5% | 58%
21 | B21 | 102% | 117% | 96%
22 | B22 | 96% | 96% | 100%
23 | B23 | 3% | 20% | –
24 | B24 | 1% | – | –
